Experimental data published in publication PMC10403730, “PABPN1 aggregation is driven by Ala expansion and poly(A)-RNA binding, leading to CFIm25 sequestration that impairs alternative polyadenylation”.

Target: T1, EGFP-PABPN1-10A-ΔCT (Homo sapiens, UniProt Q86U42 1-254)
T1 sequence: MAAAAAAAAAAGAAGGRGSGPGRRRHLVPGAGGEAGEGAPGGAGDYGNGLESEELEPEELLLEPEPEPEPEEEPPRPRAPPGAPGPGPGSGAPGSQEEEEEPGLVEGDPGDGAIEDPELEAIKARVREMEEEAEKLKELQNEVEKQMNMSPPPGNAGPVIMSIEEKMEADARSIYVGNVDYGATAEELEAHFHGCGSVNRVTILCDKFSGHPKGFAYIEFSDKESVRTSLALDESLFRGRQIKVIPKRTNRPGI
Assay: EMSA; 2 nM dA50, 0-5 uM protein; 50 mM Tris-HCl, 150 mM NaCl, 2 mM MgCl2, pH 7.5, 30 min at room temperature; 6% native gel
Details: protein: recombinant; tags: N-terminal EGFP, C-terminal His; label: 5'-Cy5; single-stranded

AAAAAAAAAAAAAAAAAAAAAAAAAAAAAAAAAAAAAAAAAAAAAAAAAA (ssDNA) [Cy5-dA50]: binds.
